Measured values: PMC9352680, “A comprehensive thermodynamic model for RNA binding by the Saccharomyces cerevisiae Pumilio protein PUF4”

T1: PUF4 RNA-binding domain (Saccharomyces cerevisiae, UniProt P25339 537-888)
T1 sequence: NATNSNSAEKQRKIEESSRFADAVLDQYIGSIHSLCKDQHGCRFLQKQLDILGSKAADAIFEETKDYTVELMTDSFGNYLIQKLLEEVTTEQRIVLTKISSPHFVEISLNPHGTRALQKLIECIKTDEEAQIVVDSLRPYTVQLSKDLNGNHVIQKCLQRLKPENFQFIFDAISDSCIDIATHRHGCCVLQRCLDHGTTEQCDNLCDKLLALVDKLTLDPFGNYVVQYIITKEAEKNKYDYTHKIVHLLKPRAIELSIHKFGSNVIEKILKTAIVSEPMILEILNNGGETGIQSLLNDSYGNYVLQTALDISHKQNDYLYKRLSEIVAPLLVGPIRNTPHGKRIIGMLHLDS


The binders below were run against T1, PUF4 RNA-binding domain (assay: Mg; RNA-MaP; 20 mM Na-HEPES pH 7.4, 30 mM KOAc, 0.75 mM MgCl2, 0.1% Tween-20, 5% glycerol, 0.1 mg/mL BSA, 2 mM DTT; 25 C; 0.0125-409.6 nM protein). Settings: tags: N-His6-TEV cleaved; C-SNAP kept, Cy3B-labelled; label: tethered on chip by stalled RNA polymerase.

Row | Binder | Kd
1 | UCUCUUUGUACCUGGCUCUCUU (ssRNA) [Ic_S1_P5E.1_K5.1_C5.1_H5.1_A5.1_[T5C]_[T6C]_[A7T]_F5.1_[T8G]_[T9G]_[A10C]_T5.1] | 0.489 µM
2 | UCUCUUUGUACUACACUCUCUU (ssRNA) [Ic_S1_P5E.1_K5.1_C5.1_H5.1_A5.1_[T5C]_F5.1_[T8C]_[T9A]_[A10C]_T5.1] | 0.455 µM
3 | UCUCUUUGUAUUUCUCUCUU (ssRNA) [Ic_S1_P3E.1_K3.1_C3.1_H3.1_A3.1_[A6T]_F3.1_[A8C]_T3.1] | 0.111 µM
4 | UCUCUUUGUAAUCGACUCUCUU (ssRNA) [Ic_S1_P5E.1_K5.1_C5.1_H5.1_A5.1_[T5A]_[A7C]_F5.1_[T8G]_[T9A]_[A10C]_T5.1] | 1.54 µM
5 | UCUCUUUGUACUCCACUCUCUU (ssRNA) [Ic_S1_P5E.1_K5.1_C5.1_H5.1_A5.1_[T5C]_[A7C]_F5.1_[T8C]_[T9A]_[A10C]_T5.1] | 0.5 µM
6 | UCUCUUUGUACCUUUAUCUCUU (ssRNA) [Ic_S1_P5E.1_K5.1_C5.1_H5.1_A5.1_[T5C]_[T6C]_[A7T]_F5.1_T5.1] | 0.00683 µM
7 | UCUCUUUGUAUGUUUCUCUU (ssRNA) [Ic_S1_P3E.1_K3.1_C3.1_H3.1_A3.1_[A6G]_F3.1_[A8T]_T3.1] | 0.0493 µM
8 | UCUCUUUGUACAUGUAUCUCUU (ssRNA) [Ic_S1_P5E.1_K5.1_C5.1_H5.1_A5.1_[T5C]_[T6A]_[A7T]_F5.1_[T8G]_T5.1] | 0.00891 µM
9 | UCUCUUUGUAAACACUUCUCUU (ssRNA) [Ic_S1_P5E.1_K5.1_C5.1_H5.1_A5.1_[T5A]_[T6A]_[A7C]_F5.1_[T8A]_[T9C]_[A10T]_T5.1] | 0.666 µM
10 | UCUCUUUGUAUUGUCUUCUCUU (ssRNA) [Ic_S1_P5E.1_K5.1_C5.1_H5.1_A5.1_[A7G]_F5.1_[T9C]_[A10T]_T5.1] | 0.101 µM
11 | UCUCUUUGUACAGCCCUCUCUU (ssRNA) [Ic_S1_P5E.1_K5.1_C5.1_H5.1_A5.1_[T5C]_[T6A]_[A7G]_F5.1_[T8C]_[T9C]_[A10C]_T5.1] | 0.142 µM
12 | UCUCUUUGUAAAUCCGUCUCUU (ssRNA) [Ic_S1_P5E.1_K5.1_C5.1_H5.1_A5.1_[T5A]_[T6A]_[A7T]_F5.1_[T8C]_[T9C]_[A10G]_T5.1] | 0.747 µM
13 | UCUCUUUGUAGCCUACUCUCUU (ssRNA) [Ic_S1_P5E.1_K5.1_C5.1_H5.1_A5.1_[T5G]_[T6C]_[A7C]_F5.1_[T9A]_[A10C]_T5.1] | 0.0489 µM
14 | UCUCUUUGUAUUUUCGUCUCUU (ssRNA) [Ic_S1_P5E.1_K5.1_C5.1_H5.1_A5.1_[A7T]_F5.1_[T9C]_[A10G]_T5.1] | 0.0376 µM
15 | UCUCUUUGUAUACCGAUCUCUU (ssRNA) [Ic_S1_P5E.1_K5.1_C5.1_H5.1_A5.1_[T6A]_[A7C]_F5.1_[T8C]_[T9G]_T5.1] | 0.45 µM
16 | UCUCUUUGUAGCGUUAUCUCUU (ssRNA) [Ic_S1_P5E.1_K5.1_C5.1_H5.1_A5.1_[T5G]_[T6C]_[A7G]_F5.1_T5.1] | 0.0364 µM
17 | UCUCUUUGUAUGUCCUUCUCUU (ssRNA) [Ic_S1_P5E.1_K5.1_C5.1_H5.1_A5.1_[T6G]_[A7T]_F5.1_[T8C]_[T9C]_[A10T]_T5.1] | 0.0881 µM
18 | UCUCUUUGUAUGUCUCUCUU (ssRNA) [Ic_S1_P3E.1_K3.1_C3.1_H3.1_A3.1_[A6G]_F3.1_[A8C]_T3.1] | 0.677 µM
19 | UCUCUUUGUACUGGCUUCUCUU (ssRNA) [Ic_S1_P5E.1_K5.1_C5.1_H5.1_A5.1_[T5C]_[A7G]_F5.1_[T8G]_[T9C]_[A10T]_T5.1] | 0.991 µM
20 | UCUCUUUGUACGUUGUUCUCUU (ssRNA) [Ic_S1_P5E.1_K5.1_C5.1_H5.1_A5.1_[T5C]_[T6G]_[A7T]_F5.1_[T9G]_[A10T]_T5.1] | 0.0348 µM
21 | UCUCUUUGUACACACGUCUCUU (ssRNA) [Ic_S1_P5E.1_K5.1_C5.1_H5.1_A5.1_[T5C]_[T6A]_[A7C]_F5.1_[T8A]_[T9C]_[A10G]_T5.1] | 0.122 µM
22 | UCUCUUUGUAAACUGGUCUCUU (ssRNA) [Ic_S1_P5E.1_K5.1_C5.1_H5.1_A5.1_[T5A]_[T6A]_[A7C]_F5.1_[T9G]_[A10G]_T5.1] | 0.0169 µM
23 | UCUCUUUGUAAACCUCUCUCUU (ssRNA) [Ic_S1_P5E.1_K5.1_C5.1_H5.1_A5.1_[T5A]_[T6A]_[A7C]_F5.1_[T8C]_[A10C]_T5.1] | 0.548 µM
24 | UCUCUUUGUAGUUCCUUCUCUU (ssRNA) [Ic_S1_P5E.1_K5.1_C5.1_H5.1_A5.1_[T5G]_[A7T]_F5.1_[T8C]_[T9C]_[A10T]_T5.1] | 1.76 µM
25 | UCUCUUUGUAUCUCGCUCUCUU (ssRNA) [Ic_S1_P5E.1_K5.1_C5.1_H5.1_A5.1_[T6C]_[A7T]_F5.1_[T8C]_[T9G]_[A10C]_T5.1] | 0.16 µM

Row | Binder | Kd
26 | UCUCUUUGUAUGCCGGUCUCUU (ssRNA) [Ic_S1_P5E.1_K5.1_C5.1_H5.1_A5.1_[T6G]_[A7C]_F5.1_[T8C]_[T9G]_[A10G]_T5.1] | > 2.3 µM
27 | UCUCUUUGUAAAUUCUUCUCUU (ssRNA) [Ic_S1_P5E.1_K5.1_C5.1_H5.1_A5.1_[T5A]_[T6A]_[A7T]_F5.1_[T9C]_[A10T]_T5.1] | 0.0201 µM
28 | UCUCUUUGUAGCCUAUUCUCUU (ssRNA) [Ic_S1_P5E.1_K5.1_C5.1_H5.1_A5.1_[T5G]_[T6C]_[A7C]_F5.1_[T9A]_[A10T]_T5.1] | 0.0171 µM
29 | UCUCUUUGUAUAUGAUUCUCUU (ssRNA) [Ic_S1_P5E.1_K5.1_C5.1_H5.1_A5.1_[T6A]_[A7T]_F5.1_[T8G]_[T9A]_[A10T]_T5.1] | 0.0121 µM
30 | UCUCUUUGUAGCUGUAUCUCUU (ssRNA) [Ic_S1_P5E.1_K5.1_C5.1_H5.1_A5.1_[T5G]_[T6C]_[A7T]_F5.1_[T8G]_T5.1] | 0.0478 µM
31 | UCUCUUUGUAACUAGUUCUCUU (ssRNA) [Ic_S1_P5E.1_K5.1_C5.1_H5.1_A5.1_[T5A]_[T6C]_[A7T]_F5.1_[T8A]_[T9G]_[A10T]_T5.1] | 0.642 µM
32 | UCUCUUUGUAUAACCGUCUCUU (ssRNA) [Ic_S1_P5E.1_K5.1_C5.1_H5.1_A5.1_[T6A]_F5.1_[T8C]_[T9C]_[A10G]_T5.1] | 0.152 µM
33 | UCUCUUUGUAAACGCUUCUCUU (ssRNA) [Ic_S1_P5E.1_K5.1_C5.1_H5.1_A5.1_[T5A]_[T6A]_[A7C]_F5.1_[T8G]_[T9C]_[A10T]_T5.1] | 0.854 µM
34 | UCUCUUUGUACCUGCCUCUCUU (ssRNA) [Ic_S1_P5E.1_K5.1_C5.1_H5.1_A5.1_[T5C]_[T6C]_[A7T]_F5.1_[T8G]_[T9C]_[A10C]_T5.1] | 0.353 µM
35 | UCUCUUUGUAACAUGCUCUCUU (ssRNA) [Ic_S1_P5E.1_K5.1_C5.1_H5.1_A5.1_[T5A]_[T6C]_F5.1_[T9G]_[A10C]_T5.1] | 0.0132 µM
36 | UCUCUUUGUAAUUUAGUCUCUU (ssRNA) [Ic_S1_P5E.1_K5.1_C5.1_H5.1_A5.1_[T5A]_[A7T]_F5.1_[T9A]_[A10G]_T5.1] | 0.00308 µM
37 | UCUCUUUGUAUCUCCGUCUCUU (ssRNA) [Ic_S1_P5E.1_K5.1_C5.1_H5.1_A5.1_[T6C]_[A7T]_F5.1_[T8C]_[T9C]_[A10G]_T5.1] | 0.484 µM
38 | UCUCUUUGUAGCUUUUUCUCUU (ssRNA) [Ic_S1_P5E.1_K5.1_C5.1_H5.1_A5.1_[T5G]_[T6C]_[A7T]_F5.1_[A10T]_T5.1] | 0.516 µM
39 | UCUCUUUGUACGUCACUCUCUU (ssRNA) [Ic_S1_P5E.1_K5.1_C5.1_H5.1_A5.1_[T5C]_[T6G]_[A7T]_F5.1_[T8C]_[T9A]_[A10C]_T5.1] | 0.58 µM
40 | UCUCUUUGUAUCUCUCUCUU (ssRNA) [Ic_S1_P3E.1_K3.1_C3.1_H3.1_A3.1_[A6C]_F3.1_[A8C]_T3.1] | 0.0974 µM
41 | UCUCUUUGUAACCUAUUCUCUU (ssRNA) [Ic_S1_P5E.1_K5.1_C5.1_H5.1_A5.1_[T5A]_[T6C]_[A7C]_F5.1_[T9A]_[A10T]_T5.1] | 0.0128 µM
42 | UCUCUUUGUAAGCUUUUCUCUU (ssRNA) [Ic_S1_P5E.1_K5.1_C5.1_H5.1_A5.1_[T5A]_[T6G]_[A7C]_F5.1_[A10T]_T5.1] | 0.643 µM
43 | UCUCUUUGUAAAAACCUCUCUU (ssRNA) [Ic_S1_P5E.1_K5.1_C5.1_H5.1_A5.1_[T5A]_[T6A]_F5.1_[T8A]_[T9C]_[A10C]_T5.1] | 1.14 µM
44 | UCUCUUUGUACGUGCCUCUCUU (ssRNA) [Ic_S1_P5E.1_K5.1_C5.1_H5.1_A5.1_[T5C]_[T6G]_[A7T]_F5.1_[T8G]_[T9C]_[A10C]_T5.1] | 0.583 µM
45 | UCUCUUUGUAGCAACCUCUCUU (ssRNA) [Ic_S1_P5E.1_K5.1_C5.1_H5.1_A5.1_[T5G]_[T6C]_F5.1_[T8A]_[T9C]_[A10C]_T5.1] | 1.85 µM
46 | UCUCUUUGUAGCCCUAUCUCUU (ssRNA) [Ic_S1_P5E.1_K5.1_C5.1_H5.1_A5.1_[T5G]_[T6C]_[A7C]_F5.1_[T8C]_T5.1] | 0.113 µM
47 | UCUCUUUGUAACCUAGUCUCUU (ssRNA) [Ic_S1_P5E.1_K5.1_C5.1_H5.1_A5.1_[T5A]_[T6C]_[A7C]_F5.1_[T9A]_[A10G]_T5.1] | 0.00464 µM
48 | UCUCUUUGUAUUCGAUUCUCUU (ssRNA) [Ic_S1_P5E.1_K5.1_C5.1_H5.1_A5.1_[A7C]_F5.1_[T8G]_[T9A]_[A10T]_T5.1] | 0.466 µM
49 | UCUCUUUGUAGCCCUUUCUCUU (ssRNA) [Ic_S1_P5E.1_K5.1_C5.1_H5.1_A5.1_[T5G]_[T6C]_[A7C]_F5.1_[T8C]_[A10T]_T5.1] | > 2.3 µM
50 | UCUCUUUGUAUCAAUUUCUCUU (ssRNA) [Ic_S1_P5E.1_K5.1_C5.1_H5.1_A5.1_[T6C]_F5.1_[T8A]_[A10T]_T5.1] | 0.0852 µM
